The results in this text go back to doi:10.1101/2024.09.27.615443 (bioRxiv, 2024).

In this assay the target is recombinant TGF-β1/GARP (Homo sapiens, UniProt P01137;Q14392). Kind of assay: ELISA.
Chain of recombinant TGF-β1/GARP (P01137 30-390, chain 1 of 2): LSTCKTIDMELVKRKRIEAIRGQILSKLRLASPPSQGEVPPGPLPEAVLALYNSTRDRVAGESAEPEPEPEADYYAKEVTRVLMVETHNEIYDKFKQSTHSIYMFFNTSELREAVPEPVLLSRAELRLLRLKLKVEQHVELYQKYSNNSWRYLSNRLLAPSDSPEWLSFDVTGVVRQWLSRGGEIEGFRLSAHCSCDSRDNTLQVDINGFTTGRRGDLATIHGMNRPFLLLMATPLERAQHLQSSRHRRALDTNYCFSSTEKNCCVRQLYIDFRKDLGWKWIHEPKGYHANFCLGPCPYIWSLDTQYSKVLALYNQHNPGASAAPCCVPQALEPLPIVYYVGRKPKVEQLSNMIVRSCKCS
Chain of recombinant TGF-β1/GARP (Q14392 20-662, chain 2 of 2): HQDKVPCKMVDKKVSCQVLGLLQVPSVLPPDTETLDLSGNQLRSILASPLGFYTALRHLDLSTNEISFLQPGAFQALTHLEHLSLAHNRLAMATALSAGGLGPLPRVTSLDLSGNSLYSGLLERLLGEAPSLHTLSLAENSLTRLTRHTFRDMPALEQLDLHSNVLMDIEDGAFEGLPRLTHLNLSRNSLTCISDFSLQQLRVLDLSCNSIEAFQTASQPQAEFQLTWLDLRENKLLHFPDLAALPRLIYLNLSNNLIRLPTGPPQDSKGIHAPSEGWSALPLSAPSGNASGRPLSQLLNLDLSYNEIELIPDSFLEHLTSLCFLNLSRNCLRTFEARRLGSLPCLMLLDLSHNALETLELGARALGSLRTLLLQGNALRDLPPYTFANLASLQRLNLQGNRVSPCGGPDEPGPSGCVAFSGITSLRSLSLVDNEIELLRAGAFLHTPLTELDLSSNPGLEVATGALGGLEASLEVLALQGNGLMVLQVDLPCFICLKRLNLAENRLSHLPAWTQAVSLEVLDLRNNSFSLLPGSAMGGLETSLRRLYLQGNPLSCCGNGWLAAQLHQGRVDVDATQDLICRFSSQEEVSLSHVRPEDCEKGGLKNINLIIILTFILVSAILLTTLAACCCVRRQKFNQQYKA

B1: monoclonal antibody clone 28G11 (antibody, V domains shown)
VH: EVKLVESGGGLVQPGGSLSLSCAASGFTFTDYYMSWVRQPPGKALEWLGFIRNKPNGYTTEYSASVKGRFTISRDNSQSILYLQMNVLRAEDSATYYCARYTGGGYFDYWGQGTTLTVSS
VL: DIQMTQTTSSLSASLGDRLTISCRASQDISNYLNWYQQKPDGTVKLLIYYTSRLHSGVPSRFSGSGSGTDYSLTISNLEQADIATYFCQQGDTLPWTFGGGTKLEIK
Consider B1, for which the binding result is “binds”.
